# Literature values, collected in PMC7496540.
# What was measured:
# [1] = target: SSB C-terminal peptide C-terminal nine residues (Escherichia coli) (UniProt P0AGE0)
# [2] = target: λ exonuclease (Escherichia phage lambda) (UniProt P03697)
# UniProt P03697, sequence (P03697 whole entry): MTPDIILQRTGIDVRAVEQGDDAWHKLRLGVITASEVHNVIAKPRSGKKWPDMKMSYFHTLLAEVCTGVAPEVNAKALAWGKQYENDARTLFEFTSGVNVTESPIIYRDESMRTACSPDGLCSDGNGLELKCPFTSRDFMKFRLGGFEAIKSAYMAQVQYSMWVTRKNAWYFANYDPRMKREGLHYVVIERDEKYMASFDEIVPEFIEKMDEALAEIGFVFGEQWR
# UniProt P0AGE0, sequence (P0AGE0 whole entry, looked up): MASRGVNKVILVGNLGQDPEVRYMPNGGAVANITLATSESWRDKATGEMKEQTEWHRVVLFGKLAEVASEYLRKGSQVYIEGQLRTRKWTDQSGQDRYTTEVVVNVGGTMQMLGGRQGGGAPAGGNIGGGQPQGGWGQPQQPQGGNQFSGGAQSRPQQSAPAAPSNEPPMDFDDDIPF
substance,measurement,setting,value
Redβ (from UniProt P03698),Kd,[1],10 µM
same,Kd,[2],7.9 µM
